The values below come from publication PMC4873313.

Like-named read-outs stand apart in the source and are kept apart here.

The target in assay [1] is aryl hydrocarbon receptor nuclear translocator PAS-B E362R, conjugated with Alexa-Fluor 488. As to the kind of experiment: MST.
Assay [2] has the same target. The experiment in a line: MST. The source holds these as a separate data set.
Assay [3] concerns the target aryl hydrocarbon receptor nuclear translocator PAS-B E362R. The experiment in a line: ITC. For orientation: Isothermal titration calorimetry measures the heat released or taken up as one component is titrated into another.
The target in assay [4] is aryl hydrocarbon receptor nuclear translocator PAS-B E362R, conjugated with Alexa-Fluor 488. The experiment in a line: MST. The source holds these as a separate data set.

As for HIF-2α PAS-B R247E (domain or fragment), the Kd (usually a measure of binding affinity in units of concentration) was 0.17 µM in assay [1], 0.25 µM in assay [2], 0.56 µM in assay [3] and 0.82 µM in assay [4]. Also, the dH in assay [3] was determined as 4.4 kcal/mol.
